Holding throughout (experiment): ITC
Conditions in all cases: both partners purified

In experiment [1] the target is LC3A (residues 1-121 of human LC3A) (human, UniProt Q9H492 1-121).
Experiment [2] has as its target T1, GABARAP (residues 1-117 of human GABARAP) (human, UniProt O95166 1-117).
In experiment [3] the target is T2, LC3B (residues 1-125 of human LC3B) (human, UniProt Q9GZQ8 1-125).
Experiment [4] has as its target T3, GABARAPL1 (residues 1-117 of human GABARAPL1) (human, UniProt Q9H0R8 1-117).
T3 construct: also called GABARPL1

Experiment [5] addresses T2, LC3B (residues 1-125 of human LC3B). This is another data set of the same source.
The target of experiment [6] is T3, GABARAPL1 (residues 1-117 of human …). This is another data set of the same source.
Experiment [7] has as its target T1, GABARAP (residues 1-117 of human …). The source holds these as a separate data set.

The term Kd denotes the equilibrium constant for the complex coming apart. Low values mean higher affinity, high ones lower affinity. Broadly, the stoichiometry N is the number of molecules, sites or subunits per partner or assembly.

T1 sequence (O95166 whole entry, the tested form may be a part): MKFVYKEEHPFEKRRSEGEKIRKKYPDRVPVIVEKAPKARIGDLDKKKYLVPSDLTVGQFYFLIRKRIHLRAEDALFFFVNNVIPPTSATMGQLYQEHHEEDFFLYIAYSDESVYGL
T3 sequence (Q9H0R8 whole entry, the tested form may be a part): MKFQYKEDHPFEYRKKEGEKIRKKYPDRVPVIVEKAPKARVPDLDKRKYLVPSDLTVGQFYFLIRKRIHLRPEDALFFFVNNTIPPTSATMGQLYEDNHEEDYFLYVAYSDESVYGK

B1: NSs2 (residues 53-72 of RVFV NSs) (peptide)
peptide: RLRFSDFYNVGEFPYRVGLG
Regarding B1, the equilibrium dissociation constant (Kd) in experiment [1] and in experiment [2] was > 100 µM throughout.

B2: NSs4 (residues 247-265 of RVFV NSs) (peptide)
peptide: DVEMESEEESDDDGFVEVD
For the molecule B2, the “stoichiometry N” value in experiment [3] and in experiment [4] was 1 throughout. The dissociation constant (Kd) was found to be 0.6 µM in experiment [5] and 0.49 µM in experiment [6].

B3: NSs1 (residues 2-16 of RVFV NSs) (peptide)
peptide: DYFPVISVDLQSGRR
Consider B3, for which the Kd in experiment [1] and in experiment [2] was > 100 µM each time.

B4: NSs3 (residues 234-255 of RVFV NSs) (peptide)
peptide: GRNNWIPVIPPIPDVEMESEEE
In the case of B4, the Kd in experiment [1] was > 100 µM; in experiment [7], 16 µM. Besides, in experiment [2], the “stoichiometry N” value worked out at 1.
